# Earlier results, collected in paper PMC12687026.
# Legend:
# His194 = test: kinetics; conditions: green (unconverted) LEA
# Glu212 = test: kinetics; conditions: green (unconverted) LEA
substance,measurement,setting,value
"LEA (least evolved ancestor), engineered Kaede-like green-to-red photoconvertible fluorescent protein (synthetic construct (reconstructed ancestral coral fluorescent protein))",pKa,His194,∼7.5
same,pKa,Glu212,∼4.5
